Measurements as given in US6713269B2, “Methods for identifying potential therapeutic agents for treatment of osteoporosis using mitogenic indices” (co.don Aktiengesellschaft, priority 1995, dated 2004).

Tested on: human osteoblast precursor cells
Assay: Cell proliferation rate under the influence of growth factors, using bromodeoxyuridine incorporation (BrdU incorporation)
Type: cell-based
Details: for Absorbance mean value: 54 h incubation + 18 h BrdU labelling, OD at 405 nm
Protocol: 3,000 osteoblastic cells from fractions t1 to 2 up to the second passage, recovered from osteoporotic patients (OP cells), per well of a 96-well microwell plate were incubated in the presence of 10% FCS and 10% inactivated human control serum in a cell culture medium (α-MEM and HAM-S F12 medium […]) for 48 h, 120 h and 192 h. In parallel, 3,000 osteoblastic cells from non-osteoporotic patients were incubated under the same conditions. The number of intact cells was determined by means of trypan blue staining and counting in a counting chamber. 4. Determination of the cell proliferation rate under the influence of the three growth factors 1, 2 and 3 using bromodeoxyuridine incorporation (BrdU incorporation) Growth factor 1 =TGF-β2
Cells from fraction 1 and/or 2 of each punched-out bone piece up to the 2nd passage were used in the proliferation test.
3 ×10^3 cells from the first and/or second passage per well of a 96-well plate and 200 μl of medium were used.
The cells were cultivated for three days under the conditions previously described and subsequently cultivated further for one day in medium with no serum until subconfluence was reached.
Thereafter, the three growth factors 1, 2 and 3 were added to the cells at four different final concentrations (100, 10, 1, and 0.1 ng/ml medium).
Cells in a medium containing 10% FKS and in a medium containing 5% Ultroser served as controls.
Triplets were set up for all concentrations and controls.
Six wells including cells, to which no bromodeoxyuridine had been added during the proliferation test served as blank controls.
After 54 hours of incubation with the growth factors, the proliferation test (5-Bromo-2′-deoxyuridine Labeling and Detection Kit III by Boehringer Mannheim) was initiated by adding 20 μl of labelling solution diluted 1:90 in 1% BSA medium and subsequent incubation for 18 hours.
The proliferation test was conducted according to the manufacturer's instructions.
Evaluation of the proliferation test was effected by measuring the optical density (OD) at 405 nm in an ELISA reader. After 60 minutes of color development, the absorbance was measured 12 times at intervals of 5 minutes.

B1: TGF-β2: protein growth factor 1 tested for mitogenic effect on osteoblast cells (protein, UniProt P61812 303-414, looked up)
Transforming growth factor …: ALDAAYCFRNVQDNCCLRPLYIDFKRDLGWKWIHEPKGYNANFCAGACPYLWSSDTQHSRVLSLYNTINPEASASPCCVSQDLEPLTILYYIGKTPKIEQLSNMIVKSCKCS
- Absorbance mean value (0.1 ng/ml medium): 0.150
- Absorbance mean value (1 ng/ml medium): 0.170
- Absorbance mean value (10 ng/ml medium): 0.190
- Absorbance mean value (100 ng/ml medium): 0.190
- mitogenic effect (stimulative capability of cell proliferation, dose-effect curves) (osteoblast cells from osteoporosis patients, FIG. 5): significant dose-dependent mitogenic effect
